For one substance, stoichiometry N results are on record in paper PMC6783313.

In the test the target is ClpP1(S98A) from Listeria monocytogenes (Listeria monocytogenes). Description: cryo-EM structure.

What is called stoichiometry N is the number of molecules, sites or subunits per partner or assembly. Substance “ClpP1(S98A) from Listeria monocytogenes (natural protein)” registered a stoichiometry N of 7.
